Results published in patent US20190202896A1 (NOVOBIND LIVESTOCK THERAPEUTICS, published 2019).

T1: PrgI (Salmonella Type III secretion needle protein), recombinant (Salmonella typhimurium (strain LT2) as …, UniProt P41784 1-80)
T1 sequence: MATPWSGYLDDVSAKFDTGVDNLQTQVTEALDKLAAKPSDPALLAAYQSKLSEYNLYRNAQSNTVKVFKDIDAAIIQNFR

T2: PrgI-SipD
T2 construct: also called PrgI-SipD fusion
T2 chain: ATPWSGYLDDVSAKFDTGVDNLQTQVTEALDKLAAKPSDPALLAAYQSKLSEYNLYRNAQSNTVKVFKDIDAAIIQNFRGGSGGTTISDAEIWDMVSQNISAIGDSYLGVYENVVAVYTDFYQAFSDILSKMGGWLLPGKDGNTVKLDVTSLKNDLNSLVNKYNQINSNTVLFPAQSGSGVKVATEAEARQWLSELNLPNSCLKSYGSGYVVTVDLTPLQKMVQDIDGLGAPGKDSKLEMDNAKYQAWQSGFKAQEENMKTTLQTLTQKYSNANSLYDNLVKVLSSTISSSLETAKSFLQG


molecular target: T1, PrgI (Salmonella Type III secretion …); experiment: phage ELISA, antigen-coated wells, anti-M13-HRP, A405

Binder | binding over background (PBS-only wells) [fold]
NBX0104 (VHH, also called Clone 93) VHH: QVQLVESGGGLVQPGGSLRLSCAASGVAFNSRIMGWYRQAPGKQRELVALITSGGSTNYADSVKGRFTISRNNAKKTVYLQMNSLKPEDTAVYYCNIRNYWGQGTQVTVSS | ≥ 4
NBX0105 (VHH, also called Clone 94) VHH: QVQLVESGGGLVQAGGSLRLSCAASGRTFNTYYMGWFRQAPGKEREFVSAIRWSDGGTWYADSMKGRFTISRDNAKNTGYLQMNSLKPEDTAIYYCNANVYDGNRWRTYWGQGTQVTVSS | ≥ 4
NBX0212 (VHH, also called Clone 109) VHH: QVQLQESGGGLVQAGGSLRLSCAASTSILSINAMGWNREAPGNRREMVAIIAPGGTTNYADSVKGRFTITRDISKNTIYLQMNNLKPEDTGVYYCAADPGGQSPLSWGQGTQVTVSL | ≥ 4
NBX0210 (VHH, also called Clone 107) VHH: QVQLQESGGGLVQAGGSLRLACTASGDISSISVMGWNRQAPGKQQRELVAAIASGGSVKYADSVKGRFTISRDNTKNTVYLQMNSVNAEDTAVYYCAVDTGSPRLTWGQGTQVTVSS | ≥ 4
NBX0213 (VHH, also called Clone 110) VHH: QVQLQESGGGSVQAGGSLRLSCAASGSISSITAMGWNRQAPGNQRELVAVIARGGMIKYDDSVKGRFTISRDIAKNTVFLQMDSLKPEDTGVYYCAVDNGDPRLHWGQGIQVTVSS | ≥ 4
NBX0208 (VHH, also called Clone 105) VHH: QVQLQESGGGMVQAGGSLRLACTASGDISTIDVMGWNRQAPGKHRELVAIIARGGTIKYADSVKGRFTISRDNTKNTVTVYLQMNNVNAEDTAVYYCAVDTGSPRLTWGQGTQVTVSS | ≥ 4
NBX0216 (VHH, also called Clone 113) VHH: QVQLQESGGGLVQAGGSLRLSCAASTSILSIDAMGWNRQAPGNQRRDLVAVIARGGSTQYADSVKGRFTITRDISKNTIYLQMNSLKPEYTGVYYCAADPGGASGLSWGQGTQVTVSL | ≥ 4
NBX0214 (VHH, also called Clone 111) VHH: QVQLQESGGGLVQAGGSLRLSCAASGSISSITAMGWNRQAPGNQQRDLVAVIARGGMTKYADSVQGRFTISRDIAKNTVYLQMNSLKPEDTGVYYCALDNGDPRLHWGQGIQVTVSS | ≥ 4
NBX0217 (VHH, also called Clone 114) VHH: QVQLQESGGGLVQAGGSLRLSCAASGSISSITAMGWNRQAPGNQQRDLVAVIARGGMTKYADSVQGRFTISRDIANNTVYLQMNSLKPEDTGVYYCALYNGDPRLHWGQGIQVTVSS | ≥ 4
NBX0207 (VHH, also called Clone 104) VHH: QVQLQESGGGLVQAGKSLRLSCAASTAILSIDSMGWNRQAVGNQRELVAVIARGGSTKYADSVKGRFTITRDISKNTIYLQMNSLKPEDTGVYYCAADPGGASPLSWGQGTQVTVSL | ≥ 4
NBX0209 (VHH, also called Clone 106) VHH: QVQLQESGGGLVQAGGSLRLSCAASGFTFSSSIMAWYRQAPGKQREAIASIPSFGSAVYADSVKDRFTISRDNNKNMVYLQMNSLKPEDTAVYYCNTRLYWGQGTQVTVSS | ≥ 4
NBX0215 (VHH, also called Clone 112) VHH: QVQLQESGGGLVQAGGSLRLSCAASGFTFSSAIMAWYRQAPGKQREAIASIPSFGSAVYADSVKDRFTISRDNNKNMVYLQMDSLKPEDTAVYYCNTRLYWGQGTQVTVST | ≥ 4
NBX0211 (VHH, also called Clone 108) VHH: QVQLQESGGGLVQAGGSLRLSCAASGFTFSTNILAWYRQAPGKQREAIASITPFGSAVYANSVKDRFTISRDNNKNMVYLQMNSLKPEDTAVYSCNTQLYWGQGTQVTVST | ≥ 4

Molecular target: T2, PrgI-SipD
Experiment: as above

Binder | binding over background (PBS-only wells) [fold]
NBX0223 (VHH, also called Clone 120) VHH: QVQLQESGGGLVQAGGSLRLSCVASGIDSSFYVMAWYRQAPGKQRELVASISSADSPRYEDFVKGRFTISRDNGKNTVYLQMNSLKPEDTAVYYCYGLYRQVHWGQGTQVTVSS | ≥ 4
NBX0226 (VHH, also called Clone 123) VHH: QVQLQESGGGLVQAGGSLRLSCAASGITSSLYVMAWYRQAPGKQRELVAHINSGDSPRYADFVQGRFTISRDNGKNTVYLQMNSLKPEDTAVYYCYGLYRQVHWGQGTQVTVSS | ≥ 4
NBX0230 (VHH, also called Clone 127) VHH: QVQLQESGGGSVQAGGSLRLSCAASARTLSNYAMGWFRQAPGKEREFVATISRSGGSIHYADSVKGRFTISRDNAKNTVNLQMNSLKVEDTAVYYCGRARGTGYAYTALNQYDYDYWGQGTQVTVSS | ≥ 4
NBX0234 (VHH, also called Clone 131) VHH: QVQLQESGGGLVQAGGSLRLSCAASGRTFSTYAMGWFRQAPGKEREFVATISRSGDNIYYADSVKGRFTISRDNAKNTVSLQMNSLKVEDTAVYYCGRARGTGYAHTALNQYDYDYWGQGTQVTVSS | ≥ 4
NBX0219 (VHH, also called Clone 116) VHH: QVQLQESGGGLVQPGGSLSLSCTASGSAFSGGDAMGWYRRAPGKQREFVAGISSGGIANYMDSVKGRFTISRDNAKKAVYLQMTSLKPEDTALYYCNSITAVLRGNSGWGQGTQVTVSS | ≥ 4
NBX0229 (VHH, also called Clone 126) VHH: QVQLQESGGGLVQAGGSLRLSCAASGSGILFRISAMGWYRQAPGKERDLVAGISSGGSTNYADSVKGRFTISRDNAKNTVYLQMNSLKPEDTAVYYCNIVGRTDSWGQGTQVTVSS | ≥ 4
NBX0221 (VHH, also called Clone 118) VHH: QVQLQESGGGLVQAGGSLRLSCAASGLTFNNYAMGWFRQAPGKEREFVATISRDGTNTRYADSVKGRFTISRDNAKNTVDLQMNSLKPEDTAVYYCGVGRGTGYAYTAINEYDYSKWGQGTQVTVSS | ≥ 4
NBX0236 (VHH, also called Clone 133) VHH: QVQLQESGGGLVQAGGSLRLSCAASGLTFNNYAMGWFRQAPGKEREFVATISRDGTNTRYADSVKGRFTISRDNAKNTVNLQMNSLKPEDTAVYYCGVGRGTGYAYTAIREHDYSSWGQGTQVTVSS | ≥ 4
NBX0232 (VHH, also called Clone 129) VHH: QVQLQESGGGLVQAGGSLRLSCAASGLTFHNYAMGWFRQAPGKEREFVATISRDGTNTHYADSVKGRFTISRDNAKNTVDLQMNSLKPEDTAVYYCGVGRGSGYAYTAINEYDYSKWGQGTQVTVSS | ≥ 4
NBX0227 (VHH, also called Clone 124) VHH: QVQLQESGGGLVQAGGSLRLACAASGLTFNNYAMGWFRQAPGKEREFVATISRDGTSTRYADSVKGRFTISRDNAKNTVNLQMNRLKPEDTAVYYCGVGRGSGYAYSAINEYDYSSWGQGTQVTVSS | ≥ 4
NBX0218 (VHH, also called Clone 115) VHH: QVQLQESGGGLVQAGGSLSLSCTASGSAFSGDAMGWYRRAPGKQREFVAGISSGAITNYMDSVKGRFTISRDNAKNTVYLQMTKLKPEDTAVYYCNRIQAVLRGNSGWGQGTQVTVSS | ≥ 4
NBX0231 (VHH, also called Clone 128) VHH: QVQLQESGGGLVQAGGSLTLSCTTSGSAFSGDAMGWYRRAPGQEREFVAGISSGGITNYMNFVKGRFTISRDNAKNTVYLQMTSLKPEDTAVYYCNSIKAVLRGNSGWGQGTQVTVSS | ≥ 4
NBX0233 (VHH, also called Clone 130) VHH: QVQLQESGGGLVQAGGSLSLSCTASGSAFSGDAMGWYRRAPGKQRDFVAGISSGHITNYMDSVKGRFTISRDNAKNTVYLQMTKLKPEDTAVYYCNSITAVLRGNSGWGQGTQVTVSS | ≥ 4
NBX0220 (VHH, also called Clone 117) VHH: QVQLQESGGGLVQAGGSLTLSCTASGSAFSGDAMGWYRRAPGKEREFVAGISSGGIPNYMGSVQGRFTISRDNAKNTVYLQMRRLKPEDTAVYYCNSISAVLRGNGVWGQGTQVTVSS | ≥ 4
NBX0235 (VHH, also called Clone 132) VHH: QVQLQESGGGLVQAGGSLSLSCRVSGSAFSGDAMGWYRRAPGKQREFVAGISSGGIENYMDSVKGRFTISRDNAKNTVYLRMSSLKPEDTAVYYCNLIKAVLRGNSGWGQGTQVTVSS | ≥ 4
NBX0222 (VHH, also called Clone 119) VHH: QVQLQESGGGLVQAGGSLRLSCAASGIDSSFYVMAWYRQAPGKQRELVASLGTPDSATYADFVKGRFIISRDNAKSTVYLQMNSLKPEDTAVYYCYGLYRQVYWGQGTQVTVSS | ≥ 4
NBX0224 (VHH, also called Clone 121) VHH: QVQLQQSGGGLVQAGGSLRLSCAASGLTFSSYAMGWFRQAPGKEREFIVAIGWSGGSTYYADSVKGRFTISRDNAKNTVYLHMNSLKPEDTAVYYCAARRTTAWGKGTDYWGQGTQVTVSS | ≥ 4
NBX0228 (VHH, also called Clone 125) VHH: QVQLQESGGGLVQAGGSLRLSCAASGIDSSFYVMAWYRQAPGQQRELVASISMTSADSPRYADFVKGRFTISRDNAKSTVYLQMNSLKPEDTAVYYCYGLYRQVHWGQGTQVTVSS | ≥ 4
